T1: G9a and GLP (Homo sapiens, UniProt Q96KQ7+Q9H9B1)
T1 sequence (Q96KQ7 2-1210 limits assumed): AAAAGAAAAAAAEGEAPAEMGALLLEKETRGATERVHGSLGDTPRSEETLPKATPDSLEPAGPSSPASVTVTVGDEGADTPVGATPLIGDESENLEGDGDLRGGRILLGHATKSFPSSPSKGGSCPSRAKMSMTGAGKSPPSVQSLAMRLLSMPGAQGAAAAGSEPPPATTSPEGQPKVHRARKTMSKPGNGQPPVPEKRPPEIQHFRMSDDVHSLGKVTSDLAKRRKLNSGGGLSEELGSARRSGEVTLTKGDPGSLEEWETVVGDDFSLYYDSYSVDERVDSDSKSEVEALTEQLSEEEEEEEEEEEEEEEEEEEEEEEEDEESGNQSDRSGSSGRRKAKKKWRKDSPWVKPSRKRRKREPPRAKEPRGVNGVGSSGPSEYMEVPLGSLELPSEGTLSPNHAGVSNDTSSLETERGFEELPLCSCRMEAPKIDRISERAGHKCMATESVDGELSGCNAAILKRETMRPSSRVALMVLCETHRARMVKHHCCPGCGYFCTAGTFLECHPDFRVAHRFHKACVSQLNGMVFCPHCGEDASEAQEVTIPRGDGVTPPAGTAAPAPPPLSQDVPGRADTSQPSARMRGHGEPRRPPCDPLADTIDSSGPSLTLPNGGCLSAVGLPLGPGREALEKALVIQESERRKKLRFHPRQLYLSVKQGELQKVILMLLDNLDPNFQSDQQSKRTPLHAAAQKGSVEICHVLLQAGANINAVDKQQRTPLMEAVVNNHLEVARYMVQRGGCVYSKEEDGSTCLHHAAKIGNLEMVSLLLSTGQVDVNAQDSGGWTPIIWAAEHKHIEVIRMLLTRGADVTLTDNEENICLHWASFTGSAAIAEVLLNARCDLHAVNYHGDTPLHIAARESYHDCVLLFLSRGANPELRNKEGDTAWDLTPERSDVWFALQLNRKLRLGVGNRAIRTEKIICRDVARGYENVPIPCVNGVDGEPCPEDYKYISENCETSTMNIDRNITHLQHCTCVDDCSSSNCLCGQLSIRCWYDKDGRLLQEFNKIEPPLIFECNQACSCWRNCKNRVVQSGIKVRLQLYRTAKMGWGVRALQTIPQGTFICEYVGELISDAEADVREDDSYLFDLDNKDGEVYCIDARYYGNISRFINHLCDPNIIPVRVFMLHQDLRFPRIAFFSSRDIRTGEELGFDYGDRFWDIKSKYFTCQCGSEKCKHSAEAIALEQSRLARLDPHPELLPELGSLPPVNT
T1 sequence (Q9H9B1 2-1298 limits assumed): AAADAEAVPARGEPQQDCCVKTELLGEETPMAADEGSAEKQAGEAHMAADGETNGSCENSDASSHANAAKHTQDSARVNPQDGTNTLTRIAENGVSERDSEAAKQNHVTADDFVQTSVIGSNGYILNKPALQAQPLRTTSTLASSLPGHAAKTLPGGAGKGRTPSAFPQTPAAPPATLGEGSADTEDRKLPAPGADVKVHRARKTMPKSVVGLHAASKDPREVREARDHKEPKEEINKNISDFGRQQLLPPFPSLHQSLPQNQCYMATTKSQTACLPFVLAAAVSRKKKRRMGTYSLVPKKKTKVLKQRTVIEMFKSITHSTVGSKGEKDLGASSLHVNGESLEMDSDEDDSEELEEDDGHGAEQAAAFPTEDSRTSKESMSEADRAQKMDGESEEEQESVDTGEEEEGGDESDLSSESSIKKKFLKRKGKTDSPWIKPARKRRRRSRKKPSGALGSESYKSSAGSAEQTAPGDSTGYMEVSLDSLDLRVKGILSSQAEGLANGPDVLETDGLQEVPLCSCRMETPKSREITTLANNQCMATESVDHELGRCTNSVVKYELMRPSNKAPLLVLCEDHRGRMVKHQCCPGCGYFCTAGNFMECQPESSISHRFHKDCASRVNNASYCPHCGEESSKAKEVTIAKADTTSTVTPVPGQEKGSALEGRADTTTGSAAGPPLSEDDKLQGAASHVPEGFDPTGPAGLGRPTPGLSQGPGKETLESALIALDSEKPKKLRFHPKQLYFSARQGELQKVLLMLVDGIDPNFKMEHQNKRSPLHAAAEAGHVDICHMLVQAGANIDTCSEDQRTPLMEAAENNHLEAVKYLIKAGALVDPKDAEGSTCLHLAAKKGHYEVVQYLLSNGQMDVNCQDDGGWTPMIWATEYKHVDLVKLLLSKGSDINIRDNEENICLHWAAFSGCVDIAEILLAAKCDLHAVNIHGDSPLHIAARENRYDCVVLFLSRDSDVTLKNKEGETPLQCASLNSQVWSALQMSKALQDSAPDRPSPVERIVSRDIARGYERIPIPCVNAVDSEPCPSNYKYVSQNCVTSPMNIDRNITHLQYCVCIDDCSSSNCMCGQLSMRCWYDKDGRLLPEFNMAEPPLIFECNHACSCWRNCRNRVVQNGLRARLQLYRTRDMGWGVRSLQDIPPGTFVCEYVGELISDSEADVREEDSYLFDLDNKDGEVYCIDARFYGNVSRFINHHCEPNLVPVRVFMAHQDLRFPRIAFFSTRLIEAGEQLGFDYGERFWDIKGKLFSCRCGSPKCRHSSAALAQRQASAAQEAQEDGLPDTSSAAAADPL


Experiments:
G9a and GLP = molecular target: T1, G9a and GLP; test: Triple SILAC pull-down after UNC0638 treatment of 293T cells, DMSO/UNC0638 ratio of protein captured by 3×MBT; format: cell-based; design: cells were treated for 24 hours with UNC0638 at 2.5 μM or DMSO vehicle control; endogenous in cells; host or cells: HEK 293T; settings: for Relative to UNC0638 UNC Heavy / Relative to UNC0638 UNC Light: SILAC ratio DMSO/UNC0638 of protein pulled down with 3xMBT; for Relative to UNC0638 UNC Heavy: UNC0638 in heavy SILAC media; for Relative to UNC0638 UNC Light: UNC0638 in light SILAC media; for Relative to UNC0638 Average: average of UNC Light and UNC Heavy experiments;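 for all read-outs here: mass spectrometry (Q-Exactive) SILAC quantitation, DMSO/UNC0638 ratio computed after subtracting 3×MBTD355N mutant pull-down background, only proteins with at least twofold 3×MBT over mutant signal considered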
3×MBT domain of L3MBTL1 = test: Triple SILAC pull-down, 3xMBT/3xMBTD355N ratio (cytoplasmic, nuclear and chromatin fractions of 293T cells); format: binding, human; settings: SILAC ratio, pull-down 3xMBT vs 3xMBTD355N; for 3xMBT/D355N UNC Heavy: experiment with UNC0638 in heavy SILAC media; for 3xMBT/D355N UNC Light: experiment with UNC0638 in light SILAC media;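 for all read-outs here: proteins quantified with MaxQuant, requiring at least two unique peptides and quantification in both label directions, normalized to the mean of proteins from a digested loading control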

Relative to UNC0638 UNC Heavy (G9a and GLP) [log base 2] | Relative to UNC0638 UNC Light (G9a and GLP) [log base 2] | Relative to UNC0638 Average (G9a and GLP) [log base 2] | Molecule | 3xMBT/D355N UNC Heavy (3×MBT domain of L3MBTL1) [log base 2] | 3xMBT/D355N UNC Light (3×MBT domain of L3MBTL1) [log base 2]
0.26 | 0.08 | 0.17 | CTTN (protein, UniProt Q14247 1-550, looked up) Src substrate cortactin: MWKASAGHAVSIAQDDAGADDWETDPDFVNDVSEKEQRWGAKTVQGSGHQEHINIHKLRENVFQEHQTLKEKELETGPKASHGYGGKFGVEQDRMDKSAVGHEYQSKLSKHCSQVDSVRGFGGKFGVQMDRVDQSAVGFEYQGKTEKHASQKDYSSGFGGKYGVQADRVDKSAVGFDYQGKTEKHESQRDYSKGFGGKYGIDKDKVDKSAVGFEYQGKTEKHESQKDYVKGFGGKFGVQTDRQDKCALGWDHQEKLQLHESQKDYKTGFGGKFGVQSERQDSAAVGFDYKEKLAKHESQQDYSKGFGGKYGVQKDRMDKNASTFEDVTQVSSAYQKTVPVEAVTSKTSNIRANFENLAKEKEQEDRRKAEAERAQRMAKERQEQEEARRKLEEQARAKTQTPPVSPAPQPTEERLPSSPVYEDAASFKAELSYRGPVSGTEPEPVYSMEAADYREASSQQGLAYATEAVYESAEAPGHYPAEDSTYDEYENDLGITAVALYDYQAAGDDEISFDPDDIITNIEMIDDGWWRGVCKGRYGLFPANYVELRQ | 1.52 | 2.75
0.09 | 0.25 | 0.17 | HNRNPA1 (protein, UniProt P09651 1-372, looked up) Heterogeneous nuclear …: MSKSESPKEPEQLRKLFIGGLSFETTDESLRSHFEQWGTLTDCVVMRDPNTKRSRGFGFVTYATVEEVDAAMNARPHKVDGRVVEPKRAVSREDSQRPGAHLTVKKIFVGGIKEDTEEHHLRDYFEQYGKIEVIEIMTDRGSGKKRGFAFVTFDDHDSVDKIVIQKYHTVNGHNCEVRKALSKQEMASASSSQRGRSGSGNFGGGRGGGFGGNDNFGRGGNFSGRGGFGGSRGGGGYGGSGDGYNGFGNDGGYGGGGPGYSGGSRGYGSGGQGYGNQGSGYGGSGSYDSYNNGGGGGFGGGSGSNFGGGGSYNDFGNYNNQSSNFGPMKGGNFGGRSSGPYGGGGQYFAKPRNQGGYGGSSSSSSYGSGRRF | 3.75 | 4.25
0.21 | 0.12 | 0.17 | SEPT2 (protein, UniProt Q15019 1-361, looked up) Septin-2: MSKQQPTQFINPETPGYVGFANLPNQVHRKSVKKGFEFTLMVVGESGLGKSTLINSLFLTDLYPERVIPGAAEKIERTVQIEASTVEIEERGVKLRLTVVDTPGYGDAINCRDCFKTIISYIDEQFERYLHDESGLNRRHIIDNRVHCCFYFISPFGHGLKPLDVAFMKAIHNKVNIVPVIAKADTLTLKERERLKKRILDEIEEHNIKIYHLPDAESDEDEDFKEQTRLLKASIPFSVVGSNQLIEAKGKKVRGRLYPWGVVEVENPEHNDFLKLRTMLITHMQDLQEVTQDLHYENFRSERLKRGGRKVENEDMNKDQILLEKEAELRRMQEMIARMQAQMQMQMQGGDGDGGALGHHV | 1.89 | 2.49
0.08 | 0.25 | 0.17 | SFPQ (protein, UniProt P23246 1-707, looked up) Splicing factor, proline- and …: MSRDRFRSRGGGGGGFHRRGGGGGRGGLHDFRSPPPGMGLNQNRGPMGPGPGQSGPKPPIPPPPPHQQQQQPPPQQPPPQQPPPHQPPPHPQPHQQQQPPPPPQDSSKPVVAQGPGPAPGVGSAPPASSSAPPATPPTSGAPPGSGPGPTPTPPPAVTSAPPGAPPPTPPSSGVPTTPPQAGGPPPPPAAVPGPGPGPKQGPGPGGPKGGKMPGGPKPGGGPGLSTPGGHPKPPHRGGGEPRGGRQHHPPYHQQHHQGPPPGGPGGRSEEKISDSEGFKANLSLLRRPGEKTYTQRCRLFVGNLPADITEDEFKRLFAKYGEPGEVFINKGKGFGFIKLESRALAEIAKAELDDTPMRGRQLRVRFATHAAALSVRNLSPYVSNELLEEAFSQFGPIERAVVIVDDRGRSTGKGIVEFASKPAARKAFERCSEGVFLLTTTPRPVIVEPLEQLDDEDGLPEKLAQKNPMYQKERETPPRFAQHGTFEYEYSQRWKSLDEMEKQQREQVEKNMKDAKDKLESEMEDAYHEHQANLLRQDLMRRQEELRRMEELHNQEMQKRKEMQLRQEEERRRREEEMMIRQREMEEQMRRQREESYSRMGYMDPRERDMRMGGGGAMNMGDPYGSGGQKFPPLGGGGGIGYEANPGVPPATMSGSMMGSDMRTERFGQGGAGPVGGQGPRGMGPGTPAGYGRGREEYEGPNKKPRF | 3.19 | 3.86
0.21 | 0.12 | 0.16 | DDX17 (protein, UniProt Q92841 1-729, looked up) Probable ATP-dependent RNA …: MPTGFVAPILCVLLPSPTREAATVASATGDSASERESAAPAAAPTAEAPPPSVVTRPEPQALPSPAIRAPLPDLYPFGTMRGGGFGDRDRDRDRGGFGARGGGGLPPKKFGNPGERLRKKKWDLSELPKFEKNFYVEHPEVARLTPYEVDELRRKKEITVRGGDVCPKPVFAFHHANFPQYVMDVLMDQHFTEPTPIQCQGFPLALSGRDMVGIAQTGSGKTLAYLLPAIVHINHQPYLERGDGPICLVLAPTRELAQQVQQVADDYGKCSRLKSTCIYGGAPKGPQIRDLERGVEICIATPGRLIDFLESGKTNLRRCTYLVLDEADRMLDMGFEPQIRKIVDQIRPDRQTLMWSATWPKEVRQLAEDFLRDYTQINVGNLELSANHNILQIVDVCMESEKDHKLIQLMEEIMAEKENKTIIFVETKRRCDDLTRRMRRDGWPAMCIHGDKSQPERDWVLNEFRSGKAPILIATDVASRGLDVEDVKFVINYDYPNSSEDYVHRIGRTARSTNKGTAYTFFTPGNLKQARELIKVLEEANQAINPKLMQLVDHRGGGGGGGGRSRYRTTSSANNPNLMYQDECDRRLRGVKDGGRRDSASYRDRSETDRAGYANGSGYGSPNSAFGAQAGQYTYGQGTYGAAAYGTSSYTAQEYGAGTYGASSTTSTGRSSQSSSQQFSGIGRSGQQPQPLMSQQFAQPPGATNMIGYMGQTAYQYPPPPPPPPPSRK | 2.61 | 2.86

— patent US20140274782A1, “AFFINITY REAGENTS AND METHODS FOR DETECTION, PURIFICATION, AND PROTEOMIC ANALYSIS OF METHYLATED PROTEINS” (The Board of Trustees of the Leland Stanford Junior …, priority 2013, published 2014)
